Data on 2 molecules can be found in publication PMC3326331 (Nucleic Acids Research, 2011).

This assay has as its target T1, His6-tagged human PSF (polypyrimidine tract binding protein associated splicing factor) (human, UniProt P23246 1-707).
T1 sequence (looked up): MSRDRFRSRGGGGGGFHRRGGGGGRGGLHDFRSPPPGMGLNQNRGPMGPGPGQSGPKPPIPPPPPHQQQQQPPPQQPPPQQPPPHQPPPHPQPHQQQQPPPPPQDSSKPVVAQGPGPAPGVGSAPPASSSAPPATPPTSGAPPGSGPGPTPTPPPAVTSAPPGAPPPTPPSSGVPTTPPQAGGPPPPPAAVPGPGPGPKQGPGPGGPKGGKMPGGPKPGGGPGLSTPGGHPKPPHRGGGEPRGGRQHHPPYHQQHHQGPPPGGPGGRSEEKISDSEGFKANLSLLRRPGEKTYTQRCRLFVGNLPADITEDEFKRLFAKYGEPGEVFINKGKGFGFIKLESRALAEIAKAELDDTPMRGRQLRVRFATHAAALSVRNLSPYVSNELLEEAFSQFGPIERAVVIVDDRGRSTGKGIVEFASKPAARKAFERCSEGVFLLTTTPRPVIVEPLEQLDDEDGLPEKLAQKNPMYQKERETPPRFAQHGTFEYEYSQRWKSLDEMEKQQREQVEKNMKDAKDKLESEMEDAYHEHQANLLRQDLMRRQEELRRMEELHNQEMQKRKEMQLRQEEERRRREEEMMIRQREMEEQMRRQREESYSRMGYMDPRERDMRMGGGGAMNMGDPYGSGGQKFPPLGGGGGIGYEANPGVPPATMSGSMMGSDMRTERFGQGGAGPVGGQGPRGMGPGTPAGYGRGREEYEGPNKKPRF
Nature of the assay: pull-down.

B1: human RAD51 (natural protein, UniProt Q06609 1-339, looked up)
chain: MAMQMQLEANADTSVEEESFGPQPISRLEQCGINANDVKKLEEAGFHTVEAVAYAPKKELINIKGISEAKADKILAEAAKLVPMGFTTATEFHQRRSEIIQITTGSKELDKLLQGGIETGSITEMFGEFRTGKTQICHTLAVTCQLPIDRGGGEGKAMYIDTEGTFRPERLLAVAERYGLSGSDVLDNVAYARAFNTDHQTQLLYQASAMMVESRYALLIVDSATALYRTDYSGRGELSARQMHLARFLRMLLRLADEFGVAVVITNQVVAQVDGAAMFAADPKKPIGGNIIAHASTTRLYLRKGRGETRICKIYDSPCLPEAEAMFAINADGVGDAKD
For B1, the binding result is “binds”.

B2: human DMC1 (natural protein, UniProt Q14565 1-340, looked up)
chain: MKEDQVVAEEPGFQDEEESLFQDIDLLQKHGINVADIKKLKSVGICTIKGIQMTTRRALCNVKGLSEAKVDKIKEAANKLIEPGFLTAFEYSEKRKMVFHITTGSQEFDKLLGGGIESMAITEAFGEFRTGKTQLSHTLCVTAQLPGAGGYPGGKIIFIDTENTFRPDRLRDIADRFNVDHDAVLDNVLYARAYTSEHQMELLDYVAAKFHEEAGIFKLLIIDSIMALFRVDFSGRGELAERQQKLAQMLSRLQKISEEYNVAVFVTNQMTADPGATMTFQADPKKPIGGHILAHASTTRISLRKGRGELRIAKIYDSPEMPENEATFAITAGGIGDAKE
For the molecule B2, the binding result was “binds”.
